Earlier results on 1 substance are cited in PMC9377792.

For this series, the target named is uPAR (Homo sapiens) (UniProt Q03405).
UniProt Q03405, sequence (Q03405 23-305): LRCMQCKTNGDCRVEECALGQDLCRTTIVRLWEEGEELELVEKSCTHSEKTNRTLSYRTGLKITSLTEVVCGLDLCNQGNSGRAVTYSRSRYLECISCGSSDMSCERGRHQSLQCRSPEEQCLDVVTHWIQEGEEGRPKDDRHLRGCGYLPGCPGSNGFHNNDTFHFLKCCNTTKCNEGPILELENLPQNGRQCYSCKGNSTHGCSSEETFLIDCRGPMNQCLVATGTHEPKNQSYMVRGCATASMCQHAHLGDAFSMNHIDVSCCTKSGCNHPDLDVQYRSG

In general, Kd refers to the free concentration of one partner at which half of the binding sites on the other are occupied at equilibrium, for simple one-to-one binding. With Factor XII (from UniProt P00748), the Kd is 37.1 nM.
